Measured values as given in US20210139548A1 (published 2021).
*1 amine or outer side, *2 acyl side, *3 side chain or, on linkers, in order; H or OH if unused. Side-chain parts run from the residue outwards. The star is where a group is joined. C18 diacid = O=C(O)CCCCCCCCCCCCCCCCC(=O)*; γGlu = O=C(O)[C@H](CCC(=O)[*:2])N[*:1]; Isovaleryl = CC(C)CC(=O)*; AEEA = NCCOCCOCC(=O)O

T1: human neuropeptide Y2 receptor (human, UniProt P49146 1-381)
T1 construct: whole, on cells; also called hNPY2 receptor; hNPY2-R
T1 sequence (looked up): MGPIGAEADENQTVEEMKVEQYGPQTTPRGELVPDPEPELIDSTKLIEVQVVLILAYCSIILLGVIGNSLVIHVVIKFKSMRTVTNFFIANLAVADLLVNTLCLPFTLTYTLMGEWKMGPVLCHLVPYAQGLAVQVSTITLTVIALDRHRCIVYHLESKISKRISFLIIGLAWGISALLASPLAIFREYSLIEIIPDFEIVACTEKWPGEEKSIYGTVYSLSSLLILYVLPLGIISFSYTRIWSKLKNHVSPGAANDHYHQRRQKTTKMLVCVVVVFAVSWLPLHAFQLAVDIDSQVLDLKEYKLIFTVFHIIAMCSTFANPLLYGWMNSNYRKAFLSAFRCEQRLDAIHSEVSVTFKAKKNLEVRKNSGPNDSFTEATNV


Molecular target: T1, human neuropeptide Y2 receptor
Assay: radioligand competition (125I-PYY(1-36)), hNPY2R membranes
Description: The filtration RLB assay was carried out in 96-well plates in a final volume of 100 μl per well. Freeze-dried test peptides were dissolved in 100% dimethyl sulfoxide (DMSO) to stock solutions of 1 mM and serial dilutions were performed in assay buffer (50 mM HEPES, 5 mM MgCl₂, 1 mM CaCl₂, pH 7.4) containing 0.2% ovalbumin. […] Next, 80 μL membranes (HTS066M, ChemiSCREEN™ Human Neuropeptide Y2 Receptor Membrane Preparation, CHEMICON) were added to each well to give a final protein concentration of 0.5 μg/well. The plates were sealed and incubated at room temperature for 2 hours in a plate shaker set at 400 rpm. The incubation was stopped by vacuum filtration onto 0.5% poly-ethylene amine (PEI) presoaked GF/C filters using a 96-well FilterMate™ harvester (Perkin Elmer) followed by four washes with 300 μl/well ice-cold wash buffer (50 mM HEPES, 500 mM NaCl, pH7.4). Filter plates were then dried for 60 min at room temperature and the bottom of the plates was sealed with backing tape UniFilter-96. Finally, 50 μl/well scintillation counter cocktail (Microscint20, Packard) was added and the radioactivity was counted in the Packard TopCount NXT scintillation counter. IC₅₀ values (the half maximal inhibitory concentration of the agonist) were calculated by nonlinear regression analysis of sigmoidal dose-response curves.

| Binder | Ki |
| --- | --- |
| Isovaleryl-APEK([AEEA-AEEA-γGlu-C18 diacid])PEEEASPAELQRYYVSLRHYYNWLTRQRY-NH2 (SMILES CC(C)CC(=O)N[C@@H](C)C(=O)N1CCC[C@H]1C(=O)N[C@@H](CCC(=O)O)C(=O)N[C@@H](CCCCNC(=O)COCCOCCNC(=O)COCCOCCNC(=O)CC[C@H](NC(=O)CCCCCCCCCCCCCCCCC(=O)O)C(=O)O)C(=O)N1CCC[C@H]1C(=O)N[C@@H](CCC(=O)O)C(=O)N[C@@H](CCC(=O)O)C(=O)N[C@@H](CCC(=O)O)C(=O)N[C@@H](C)C(=O)N[C@@H](CO)C(=O)N1CCC[C@H]1C(=O)N[C@@H](C)C(=O)N[C@@H](CCC(=O)O)C(=O)N[C@@H](CC(C)C)C(=O)N[C@@H](CCC(N)=O)C(=O)N[C@@H](CCCNC(=N)N)C(=O)N[C@@H](Cc1ccc(O)cc1)C(=O)N[C@@H](Cc1ccc(O)cc1)C(=O)N[C@H](C(=O)N[C@@H](CO)C(=O)N[C@@H](CC(C)C)C(=O)N[C@@H](CCCNC(=N)N)C(=O)N[C@@H](Cc1c[nH]cn1)C(=O)N[C@@H](Cc1ccc(O)cc1)C(=O)N[C@@H](Cc1ccc(O)cc1)C(=O)N[C@@H](CC(N)=O)C(=O)N[C@@H](Cc1c[nH]c2ccccc12)C(=O)N[C@@H](CC(C)C)C(=O)N[C@H](C(=O)N[C@@H](CCCNC(=N)N)C(=O)N[C@@H](CCC(N)=O)C(=O)N[C@@H](CCCNC(=N)N)C(=O)N[C@@H](Cc1ccc(O)cc1)C(N)=O)[C@@H](C)O)C(C)C) [Compound 3] | 3.14 nM |
| Isovaleryl-APEK([AEEA-AEEA-γGlu-C18 diacid])PEEEVSPEELQRYYVSLRHYYNWLTRQRY-NH2 (SMILES CC(C)CC(=O)N[C@@H](C)C(=O)N1CCC[C@H]1C(=O)N[C@@H](CCC(=O)O)C(=O)N[C@@H](CCCCNC(=O)COCCOCCNC(=O)COCCOCCNC(=O)CC[C@H](NC(=O)CCCCCCCCCCCCCCCCC(=O)O)C(=O)O)C(=O)N1CCC[C@H]1C(=O)N[C@@H](CCC(=O)O)C(=O)N[C@@H](CCC(=O)O)C(=O)N[C@@H](CCC(=O)O)C(=O)N[C@H](C(=O)N[C@@H](CO)C(=O)N1CCC[C@H]1C(=O)N[C@@H](CCC(=O)O)C(=O)N[C@@H](CCC(=O)O)C(=O)N[C@@H](CC(C)C)C(=O)N[C@@H](CCC(N)=O)C(=O)N[C@@H](CCCNC(=N)N)C(=O)N[C@@H](Cc1ccc(O)cc1)C(=O)N[C@@H](Cc1ccc(O)cc1)C(=O)N[C@H](C(=O)N[C@@H](CO)C(=O)N[C@@H](CC(C)C)C(=O)N[C@@H](CCCNC(=N)N)C(=O)N[C@@H](Cc1c[nH]cn1)C(=O)N[C@@H](Cc1ccc(O)cc1)C(=O)N[C@@H](Cc1ccc(O)cc1)C(=O)N[C@@H](CC(N)=O)C(=O)N[C@@H](Cc1c[nH]c2ccccc12)C(=O)N[C@@H](CC(C)C)C(=O)N[C@H](C(=O)N[C@@H](CCCNC(=N)N)C(=O)N[C@@H](CCC(N)=O)C(=O)N[C@@H](CCCNC(=N)N)C(=O)N[C@@H](Cc1ccc(O)cc1)C(N)=O)[C@@H](C)O)C(C)C)C(C)C) [Compound 5] | 14.8 nM |
| Isovaleryl-APEK([AEEA-AEEA-γGlu-C18 diacid])PEEDASPEELQRYYVSLRHYYNWLQRQRY-NH2 (SMILES CC(C)CC(=O)N[C@@H](C)C(=O)N1CCC[C@H]1C(=O)N[C@@H](CCC(=O)O)C(=O)N[C@@H](CCCCNC(=O)COCCOCCNC(=O)COCCOCCNC(=O)CC[C@H](NC(=O)CCCCCCCCCCCCCCCCC(=O)O)C(=O)O)C(=O)N1CCC[C@H]1C(=O)N[C@@H](CCC(=O)O)C(=O)N[C@@H](CCC(=O)O)C(=O)N[C@@H](CC(=O)O)C(=O)N[C@@H](C)C(=O)N[C@@H](CO)C(=O)N1CCC[C@H]1C(=O)N[C@@H](CCC(=O)O)C(=O)N[C@@H](CCC(=O)O)C(=O)N[C@@H](CC(C)C)C(=O)N[C@@H](CCC(N)=O)C(=O)N[C@@H](CCCNC(=N)N)C(=O)N[C@@H](Cc1ccc(O)cc1)C(=O)N[C@@H](Cc1ccc(O)cc1)C(=O)N[C@H](C(=O)N[C@@H](CO)C(=O)N[C@@H](CC(C)C)C(=O)N[C@@H](CCCNC(=N)N)C(=O)N[C@@H](Cc1c[nH]cn1)C(=O)N[C@@H](Cc1ccc(O)cc1)C(=O)N[C@@H](Cc1ccc(O)cc1)C(=O)N[C@@H](CC(N)=O)C(=O)N[C@@H](Cc1c[nH]c2ccccc12)C(=O)N[C@@H](CC(C)C)C(=O)N[C@@H](CCC(N)=O)C(=O)N[C@@H](CCCNC(=N)N)C(=O)N[C@@H](CCC(N)=O)C(=O)N[C@@H](CCCNC(=N)N)C(=O)N[C@@H](Cc1ccc(O)cc1)C(N)=O)C(C)C) [Compound 4] | 1.43 nM |
| Isovaleryl-APEK([AEEA-AEEA-γGlu-C18 diacid])PEEEASPEELQRYYVSARHYYNWLTRQRY-NH2 (SMILES CC(C)CC(=O)N[C@@H](C)C(=O)N1CCC[C@H]1C(=O)N[C@@H](CCC(=O)O)C(=O)N[C@@H](CCCCNC(=O)COCCOCCNC(=O)COCCOCCNC(=O)CC[C@H](NC(=O)CCCCCCCCCCCCCCCCC(=O)O)C(=O)O)C(=O)N1CCC[C@H]1C(=O)N[C@@H](CCC(=O)O)C(=O)N[C@@H](CCC(=O)O)C(=O)N[C@@H](CCC(=O)O)C(=O)N[C@@H](C)C(=O)N[C@@H](CO)C(=O)N1CCC[C@H]1C(=O)N[C@@H](CCC(=O)O)C(=O)N[C@@H](CCC(=O)O)C(=O)N[C@@H](CC(C)C)C(=O)N[C@@H](CCC(N)=O)C(=O)N[C@@H](CCCNC(=N)N)C(=O)N[C@@H](Cc1ccc(O)cc1)C(=O)N[C@@H](Cc1ccc(O)cc1)C(=O)N[C@H](C(=O)N[C@@H](CO)C(=O)N[C@@H](C)C(=O)N[C@@H](CCCNC(=N)N)C(=O)N[C@@H](Cc1c[nH]cn1)C(=O)N[C@@H](Cc1ccc(O)cc1)C(=O)N[C@@H](Cc1ccc(O)cc1)C(=O)N[C@@H](CC(N)=O)C(=O)N[C@@H](Cc1c[nH]c2ccccc12)C(=O)N[C@@H](CC(C)C)C(=O)N[C@H](C(=O)N[C@@H](CCCNC(=N)N)C(=O)N[C@@H](CCC(N)=O)C(=O)N[C@@H](CCCNC(=N)N)C(=O)N[C@@H](Cc1ccc(O)cc1)C(N)=O)[C@@H](C)O)C(C)C) [Compound 6] | 6.52 nM |

More lines, in order of falling Ki, values ahead:

| Ki | Binder |
| --- | --- |
| 2.5 nM | Isovaleryl-APEK([AEEA-AEEA-γGlu-C18 diacid])PEEDAQPEELQEYYVSLRHYYNWLTRQRY-NH2 (SMILES CC(C)CC(=O)N[C@@H](C)C(=O)N1CCC[C@H]1C(=O)N[C@@H](CCC(=O)O)C(=O)N[C@@H](CCCCNC(=O)COCCOCCNC(=O)COCCOCCNC(=O)CC[C@H](NC(=O)CCCCCCCCCCCCCCCCC(=O)O)C(=O)O)C(=O)N1CCC[C@H]1C(=O)N[C@@H](CCC(=O)O)C(=O)N[C@@H](CCC(=O)O)C(=O)N[C@@H](CC(=O)O)C(=O)N[C@@H](C)C(=O)N[C@@H](CCC(N)=O)C(=O)N1CCC[C@H]1C(=O)N[C@@H](CCC(=O)O)C(=O)N[C@@H](CCC(=O)O)C(=O)N[C@@H](CC(C)C)C(=O)N[C@@H](CCC(N)=O)C(=O)N[C@@H](CCC(=O)O)C(=O)N[C@@H](Cc1ccc(O)cc1)C(=O)N[C@@H](Cc1ccc(O)cc1)C(=O)N[C@H](C(=O)N[C@@H](CO)C(=O)N[C@@H](CC(C)C)C(=O)N[C@@H](CCCNC(=N)N)C(=O)N[C@@H](Cc1c[nH]cn1)C(=O)N[C@@H](Cc1ccc(O)cc1)C(=O)N[C@@H](Cc1ccc(O)cc1)C(=O)N[C@@H](CC(N)=O)C(=O)N[C@@H](Cc1c[nH]c2ccccc12)C(=O)N[C@@H](CC(C)C)C(=O)N[C@H](C(=O)N[C@@H](CCCNC(=N)N)C(=O)N[C@@H](CCC(N)=O)C(=O)N[C@@H](CCCNC(=N)N)C(=O)N[C@@H](Cc1ccc(O)cc1)C(N)=O)[C@@H](C)O)C(C)C) [Compound 1] |
| 1.02 nM | Isovaleryl-APEK([AEEA-AEEA-γGlu-C18 diacid])PEEDASPEELQAYYVSLRHYYNWLTRQRY-NH2 (SMILES CC(C)CC(=O)N[C@@H](C)C(=O)N1CCC[C@H]1C(=O)N[C@@H](CCC(=O)O)C(=O)N[C@@H](CCCCNC(=O)COCCOCCNC(=O)COCCOCCNC(=O)CC[C@H](NC(=O)CCCCCCCCCCCCCCCCC(=O)O)C(=O)O)C(=O)N1CCC[C@H]1C(=O)N[C@@H](CCC(=O)O)C(=O)N[C@@H](CCC(=O)O)C(=O)N[C@@H](CC(=O)O)C(=O)N[C@@H](C)C(=O)N[C@@H](CO)C(=O)N1CCC[C@H]1C(=O)N[C@@H](CCC(=O)O)C(=O)N[C@@H](CCC(=O)O)C(=O)N[C@@H](CC(C)C)C(=O)N[C@@H](CCC(N)=O)C(=O)N[C@@H](C)C(=O)N[C@@H](Cc1ccc(O)cc1)C(=O)N[C@@H](Cc1ccc(O)cc1)C(=O)N[C@H](C(=O)N[C@@H](CO)C(=O)N[C@@H](CC(C)C)C(=O)N[C@@H](CCCNC(=N)N)C(=O)N[C@@H](Cc1c[nH]cn1)C(=O)N[C@@H](Cc1ccc(O)cc1)C(=O)N[C@@H](Cc1ccc(O)cc1)C(=O)N[C@@H](CC(N)=O)C(=O)N[C@@H](Cc1c[nH]c2ccccc12)C(=O)N[C@@H](CC(C)C)C(=O)N[C@H](C(=O)N[C@@H](CCCNC(=N)N)C(=O)N[C@@H](CCC(N)=O)C(=O)N[C@@H](CCCNC(=N)N)C(=O)N[C@@H](Cc1ccc(O)cc1)C(N)=O)[C@@H](C)O)C(C)C) [Compound 7] |
